This passage reports maximal extent of pHER3 suppression, Kato III cells and potency in pHER3 ELISA, HCC827 cells, against 2C2 (fold less potent) results from patent publication US20190040143A1.

The target in this test is human HER3 on human cancer cell lines (human) (UniProt P21860). The test is described as follows: cell-based or functional assay.

Substance “U1-59 anti-HER3 monoclonal antibody (International Patent Publication WO 2007077028)” came in with a maximal extent of pHER3 suppression, Kato III cells of 60% and a potency in pHER3 ELISA, HCC827 cells, against 2C2 (fold less potent) of 10.
